Measured values from US20140056918A1 (Novo Nordisk, published 2014).

T1: Human OSCAR (osteoclast-associated receptor), full length, on cells (human)
T1 construct: The signal peptide limits cannot be read from the text; also called hOSCAR; HEK-OSCAR cells
T1 chain: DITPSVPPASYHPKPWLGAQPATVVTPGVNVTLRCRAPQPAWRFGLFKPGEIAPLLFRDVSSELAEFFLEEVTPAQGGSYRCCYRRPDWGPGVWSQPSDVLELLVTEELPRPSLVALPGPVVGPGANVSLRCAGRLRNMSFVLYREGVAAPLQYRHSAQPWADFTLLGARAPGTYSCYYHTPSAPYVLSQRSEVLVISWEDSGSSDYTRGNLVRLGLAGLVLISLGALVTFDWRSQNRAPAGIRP

T2: Human OSCAR-S1a (naturally occurring soluble isoform) (human, UniProt Q8IYS5 19-282)
T2 construct: Recombinant soluble isoform used as SPR analyte; also called OSCAR 1Sa
T2 sequence: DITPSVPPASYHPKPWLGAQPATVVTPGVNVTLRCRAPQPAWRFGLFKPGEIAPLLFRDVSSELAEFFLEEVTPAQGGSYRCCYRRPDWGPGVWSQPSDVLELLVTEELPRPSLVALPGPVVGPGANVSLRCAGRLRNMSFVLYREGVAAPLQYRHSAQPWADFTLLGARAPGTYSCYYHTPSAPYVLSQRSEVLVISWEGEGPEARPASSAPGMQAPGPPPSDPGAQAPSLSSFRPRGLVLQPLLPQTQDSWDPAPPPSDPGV

B1: Human OSCAR-ECD (recombinant extracellular domain of human OSCAR) (receptor)
chain: DITPSVPPASYHPKPWLGAQPATVVTPGVNVTLRCRAPQPAWRFGLFKPGEIAPLLFRDVSSELAEFFLEEVTPAQGGSYRCCYRRPDWGPGVWSQPSDVLELLVTEELPRPSLVALPGPVVGPGANVSLRCAGRLRNMSFVLYREGVAAPLQYRHSAQPWADFTLLGARAPGTYSCYYHTPSAPYVLSQRSEVLVISWEDSGSSDYTR
notes: also called OSACAR-ECD
B2: 4F3B (antibody, V domains shown)
VH: QVQLQQSGAELAKPGASVKMSCKASGFTFTSYWMHWVKQRPGQGLEWIGYINPSTDYTEYNQKFKDKATLTADKSSSTAYMQLSSLTSEDSAVYYCARRSPFAMDYWGQGTSVTVSS
VL: DIVMTQSPSSLTVTAGEKVTMSCKSSQSLLNSGNQKNYLTWYQQKPGQPPKVLIYWASTRESGVPDRFTGSGSGTDFTLTISSVQAEDLAVYYCQNDYSYPLTFGTGTKLELKR
notes: Mouse anti-human OSCAR mAb (its isotype control is mIgG1); The heavy chain entry covers only VH-CH1 and the start of the hinge; It was fluorescein-labelled in the peptide array and Alexa Fluor 647-labelled in the flow binning; also called mAb 4F3B
B3: 3F7A9 (antibody, V domains shown)
VH: EIQLQQSGPELVKPGASVKVSCKASGYVFTSYNMYWVKQSHGKSLEWIGYIDPYNGGTRYNQKFKGKATLTVDKSSSTAYMHLNSLTSEDSAVYYCARLDYYGNFYWGQGTTLTVSS
VL: DIKMTQSPSSMYASLGERVTITCKASQDINSFLSWLQQKPGKSPKTLIYRANRLVDGVPSRFSGSGSGQDYSLTISSLEYEDMGIYYCLQYDDFPYTFGGGTKLEIKR
notes: Mouse anti-human OSCAR mAb (its isotype control is mIgG1); The heavy chain entry covers only VH-CH1 and the start of the hinge; also called 3F7A9-1
B4: 13F5A5 (antibody, V domains shown)
VH: EVQLVQSGAEVKKPGESLKISCKGSGYSFTSYWIVWVRQMPGKGLEWMGSIYPGDSDARYSPSFQGQVTISADKSISTAYLQWSSLKASDTAMYYCARQKITMVRGVIITPLDGMDVWGQGTTVTVSS
VL: not shown
notes: Fully human anti-OSCAR mAb from HuMab mice; also called 13F5A5 (Hu)

How the values were obtained:
[1] = target: T3, Human collagen I (Sigma, #C5483) (human, UniProt P02452 162-1218; P08123 80-1119); assay: SPR
T3 construct: Bought collagen preparation, immobilised by amine coupling or coated on plates; also called ColI; colI

[2] = target: T1, Human OSCAR (osteoclast-associated …); assay: flow cytometry on primary human monocytes, donor #2
Procedure: (§1) Cell number and viability were determined using a Cedex cell counter. The cells were diluted in washing buffer (1×PBS (—Ca²⁺/—Mg²⁺)+5% FBS+0.1% Na-azide) to […]. In the case of monocytes, the cells were further blocked by adding 10 μl of a hFcR blocker (Miltenyi, #130-059-901) and incubated for 10 minutes at 4° C. 50 μl of cells (50.000 cells/well) were seeded into 96 well round-bottomed microtiter plates. Hybridoma supernatants or purified antibodies (in serial dilutions) were added to the cells at 50 μl/well. The isotype-matched purified irrelevant human mAb or mouse mAb served as negative controls (mouse IgG1, BD, #553452; mouse IgG2a, BD, #557353; mouse IgG2b, BD, #557352). […] Cells were washed in PBS, re-suspended in fixation buffer (1×PBS (—Ca²⁺/—Mg²⁺), pH7.2+1% formalin (B&B, #LAB96751.0500) and analysed by FACS flow cytometer. EC₅₀ values were calculated using a GraphPad Prism 5 software.

[3] = target: B1; assay: SPR competition, 50 nM OSCAR-ECD premixed with mAb, over immobilised collagen II; set-up: unit not given here
Procedure: (§2) The experiment was performed using a Biacore T 100 instrument (GE Healthcare). Human collagen 1 (Sigma, # C5483) and human collagen 2 (Millipore #CC052) were diluted with 10 mM NaOAc, pH 4.5 and immobilized on a Biacore CM3 sensor chip (GE Healthcare) using amine coupling chemistry (GE Healthcare). Immobilization was performed according to the standard procedure, but at 5° C. in order to prevent aggregation collagens, with immobilized levels of ca 250 RU on flow cells (FC) 2 and 4. A blank immobilization was performed on FC 1 & 3, which were used as reference cells. HBS-EP buffer (10 mM HEPES, 150 mM NaCl, 3 mM EDTA, 0.05% Polysorbat P20, pH7.4) was used as running buffer for the immobilization. Buffer containing HBS-EP/+0.1% BSA was used for the competition assay. The competition experiment was performed at 5° C. at a flow rate of 50 μl/min. […] OSCAR was mixed with various concentrations of anti-OSCAR antibodies ranging from 0-10 μg/ml prior to injection. Binding curves were measured for 360 s followed by 240 s of dissociation. The chip surface was regenerated for 2×20 s with 10 mM glycine, pH 2.0 between assays.
(§3) Human collagen I and II were immobilized to the surface of a Biacore sensor chip by amine coupling. […] It was hypothesized that an antibody inhibiting binding of OSCAR to collagen would lead to a concentration-dependent loss of signal, whereas a non-inhibiting antibody would enhance the signal due to the increased mass of the OSCAR-antibody complex.

[4] = target: B1; assay: SPR competition, 50 nM OSCAR-ECD premixed with mAb, over ColI immobilised at ca 300 RU
Procedure: (§4) The experiment was performed using a Biacore T 100 instrument (GE Healthcare). Human ColI (Sigma, # C5483) was diluted with 10 mM NaOAc, pH 4.5 to 10 μg/ml and immobilized on a Biacore CM3 sensor chip (GE Healthcare) using amine coupling chemistry (GE Healthcare). Immobilization was performed according to the standard procedure, but at 4° C. in order to prevent aggregation of ColI, with immobilized levels of ca 150 RU on flow cell (FC) 2 and ca 300 RU on FC 4. A blank immobilization was performed on FC 1 & 3, which were used as reference cells. HBS-EP buffer (10 mM HEPES, 150 mM NaCl, 3 mM EDTA, 0.005% Polysorbat P20, pH7.4) was used as running buffer for the immobilization. Buffer containing HBS-EP/+0.1% BSA was used for the competition assay.
(§5) The competition experiment was performed at 4° C. at a flow rate of 50 μl/min. […] OSCAR was mixed with various concentrations of anti-OSCAR antibodies ranging from 0-5 μg/ml prior to injection. Binding curves were measured for 240 s followed by 200 s of dissociation. The chip surface was regenerated for 2×20 s with 10 mM glycine, pH 2.0 between assays. All assays were performed in duplicates.
(§6) Human ColI was immobilized to the surface of a Biacore sensor chip by amine coupling.

[5] = target: B1; assay: SPR competition, 50 nM OSCAR-ECD premixed with mAb, over immobilised collagen I
Procedure: as §2, §3

[6] = target: B1; assay: SPR competition, 50 nM OSCAR-ECD premixed with mAb, over ColI immobilised at ca 150 RU
Procedure: as §4, §5, §6

[7] = target: T2, Human OSCAR-S1a (naturally occurring …); assay: SPR competition, 50 nM OSCAR-S1a premixed with mAb, over ColI immobilised at ca 150 RU
Procedure: as §4, §5, §6

[8] = target: T1, Human OSCAR (osteoclast-associated …); assay: cell-based or functional assay
[9] = target: B1; assay: SPR (Biacore T100), mAb coupled or captured on chip, OSCAR-ECD injected, 1:1 fit
Procedure: The kinetic parameters (kₐ, kd and KD) for the interaction were calculated using a 1:1 interaction Langmuir fitting model.

[10] = target: T2, Human OSCAR-S1a (naturally occurring …); assay: SPR competition, 50 nM OSCAR-S1a premixed with mAb, over ColI immobilised at ca 300 RU
Procedure: as §4, §5, §6

[11] = target: T1, Human OSCAR (osteoclast-associated …); assay: flow cytometry on primary human monocytes, donor #1
Procedure: as §1

T3 sequence (P02452 162-1218, chain 1 of 2): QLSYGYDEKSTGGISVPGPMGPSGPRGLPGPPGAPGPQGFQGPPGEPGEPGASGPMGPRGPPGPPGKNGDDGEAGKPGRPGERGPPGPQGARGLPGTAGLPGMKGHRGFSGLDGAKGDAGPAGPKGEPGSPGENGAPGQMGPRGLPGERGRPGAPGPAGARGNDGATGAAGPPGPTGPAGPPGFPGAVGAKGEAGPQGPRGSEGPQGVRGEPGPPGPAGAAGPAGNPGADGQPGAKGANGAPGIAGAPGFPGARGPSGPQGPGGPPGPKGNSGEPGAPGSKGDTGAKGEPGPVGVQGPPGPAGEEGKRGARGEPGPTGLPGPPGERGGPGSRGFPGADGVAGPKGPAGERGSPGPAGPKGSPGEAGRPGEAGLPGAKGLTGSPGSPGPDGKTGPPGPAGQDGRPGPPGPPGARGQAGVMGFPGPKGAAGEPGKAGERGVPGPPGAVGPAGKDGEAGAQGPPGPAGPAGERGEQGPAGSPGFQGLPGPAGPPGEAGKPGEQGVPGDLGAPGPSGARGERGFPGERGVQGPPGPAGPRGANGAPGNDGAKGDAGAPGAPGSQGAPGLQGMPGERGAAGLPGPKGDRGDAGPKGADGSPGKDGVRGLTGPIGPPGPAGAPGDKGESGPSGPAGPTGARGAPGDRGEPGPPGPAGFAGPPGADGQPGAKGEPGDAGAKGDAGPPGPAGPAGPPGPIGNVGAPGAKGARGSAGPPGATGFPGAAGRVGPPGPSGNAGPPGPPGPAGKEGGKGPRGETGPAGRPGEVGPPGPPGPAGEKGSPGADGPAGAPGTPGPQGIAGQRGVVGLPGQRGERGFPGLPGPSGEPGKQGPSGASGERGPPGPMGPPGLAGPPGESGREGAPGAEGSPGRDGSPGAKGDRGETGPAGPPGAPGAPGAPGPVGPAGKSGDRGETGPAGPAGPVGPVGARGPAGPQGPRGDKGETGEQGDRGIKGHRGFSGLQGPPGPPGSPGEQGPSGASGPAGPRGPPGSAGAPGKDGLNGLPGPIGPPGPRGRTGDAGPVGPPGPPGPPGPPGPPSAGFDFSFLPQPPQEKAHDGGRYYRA
T3 sequence (P08123 80-1119, chain 2 of 2): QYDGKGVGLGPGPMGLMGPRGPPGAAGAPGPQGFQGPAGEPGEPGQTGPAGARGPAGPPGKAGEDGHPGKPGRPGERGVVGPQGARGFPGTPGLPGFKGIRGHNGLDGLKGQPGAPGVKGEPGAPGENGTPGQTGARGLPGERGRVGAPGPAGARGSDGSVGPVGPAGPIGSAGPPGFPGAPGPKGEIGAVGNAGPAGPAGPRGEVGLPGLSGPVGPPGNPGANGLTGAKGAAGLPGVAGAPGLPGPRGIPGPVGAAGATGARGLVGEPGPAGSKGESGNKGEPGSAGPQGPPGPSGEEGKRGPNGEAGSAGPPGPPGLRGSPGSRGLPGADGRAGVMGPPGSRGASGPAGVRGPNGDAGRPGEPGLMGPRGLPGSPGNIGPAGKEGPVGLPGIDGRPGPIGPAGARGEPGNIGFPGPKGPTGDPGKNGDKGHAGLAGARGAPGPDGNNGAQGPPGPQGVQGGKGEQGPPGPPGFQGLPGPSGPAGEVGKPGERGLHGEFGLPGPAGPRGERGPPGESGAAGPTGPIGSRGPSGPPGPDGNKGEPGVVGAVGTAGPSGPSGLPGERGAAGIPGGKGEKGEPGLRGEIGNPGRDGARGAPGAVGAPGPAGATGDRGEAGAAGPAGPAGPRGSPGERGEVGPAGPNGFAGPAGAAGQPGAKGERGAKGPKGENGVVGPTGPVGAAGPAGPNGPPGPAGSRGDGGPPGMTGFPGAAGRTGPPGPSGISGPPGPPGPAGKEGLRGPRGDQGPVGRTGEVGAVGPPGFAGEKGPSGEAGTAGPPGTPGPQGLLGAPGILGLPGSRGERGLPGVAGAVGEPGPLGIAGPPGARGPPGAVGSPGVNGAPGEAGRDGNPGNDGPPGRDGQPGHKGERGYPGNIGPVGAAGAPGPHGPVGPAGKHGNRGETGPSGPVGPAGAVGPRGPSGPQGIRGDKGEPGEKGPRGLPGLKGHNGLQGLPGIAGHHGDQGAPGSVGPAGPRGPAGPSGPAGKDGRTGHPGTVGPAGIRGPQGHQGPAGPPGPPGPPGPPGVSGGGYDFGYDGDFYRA

Kd [1] [nM] | EC50 [2] [nM] | binding of OSCAR-ECD to collagen II with 10 µg/mL mAb [3] | Binding [RU] of OSCAR to ColI with 5 µg mAb [4] [RU] | binding of OSCAR-ECD to collagen I with 10 µg/mL mAb [5] | Binding [RU] of OSCAR to ColI with 5 µg mAb [6] [RU] | Binding [RU] of OSCAR to ColI with 5 µg mAb [7] [RU] | IC50 (IL-8), ColI-induced IL-8 release from moDC, Donor 1 [8] [nM] | IC50 (IL-8), ColI-induced IL-8 release from moDC, Donor 3 [8] [nM] | IC50 (IL-8), ColI-induced IL-8 release from moDC, Donor 4 [8] [nM] | IC50 (IL-8), ColI-induced IL-8 release from moDC, Donor 5 [8] [nM] | IC50 (IL-8), ColI-induced IL-8 release from moDC, Donor 6 [8] [nM] | Kd [9] [nM] | Binding [RU] of OSCAR to ColI with 5 µg mAb [10] [RU] | EC50 [11] [nM] | IC50 (IL-8), ColI-induced IL-8 release from moDC, Donor 2 [8] [nM] | Binder
255 | – | – | – | – | – | – | – | – | – | – | – | – | – | – | – | B1
– | 0.32 | 6.7 | 3.6 | 0.7 | 0.9 | -0.3 | 0.19 | 0.4 | 0.12 | 0.43 | 0.24 | 1.7 | 1.4 | 0.66 | – | B2
– | 0.14 | 246 | 130 | 132 | 82.5 | 58.9 | 0.16 | 0.41 | 0.06 | 0.05 | 0.1 | 9.1 | 92.6 | 1.79 | 0.06 | B3
– | 2.18 | 1.3 | 5.1 | -1.4 | 1.4 | -0.2 | 2 | – | < 0.01 | 0.23 | 0.06 | 0.7 | 2 | 4.02 | – | B4
